{"source": "paper PMC9969106", "proteins": {"B1": {"name": "GlyRα1: N38Q (protein)", "parent chain": "MYSFNTLRLYLWETIVFFSLAASKEAEAARSAPKPMSPSDFLDKLMGRTSGYDARIRPNFKGPPVNVSCNIFINSFGSIAETTMDYRVNIFLRQQWNDPRLAYNEYPDDSLDLDPSMLDSIWKPDLFFANEKGAHFHEITTDNKLLRISRNGNVLYSIRITLTLACPMDLKNFPMDVQTCIMQLESFGYTMNDLIFEWQEQGAVQVADGLTLPQFILKEEKDLRYCTKHYNTGKFTCIEARFHLERQMGYYLIQMYIPSLLIVILSWISFWINMDAAPARVGLGITTVLTMTTQSSGSRASLPKVSYVKAIDIWMAVCLLFVFSALLEYAAVNFVSRQHKELLRFRRKRRHHKSPMLNLFQEDEAGEGRFNFSAYGMGPACLQAKDGISVKGANNSNTTNPPPAPSKSPEEMRKLFIQRAKKIDKISRIGFPMAFLIFNMFYWIIYKIVRREDVHNQ"}}, "details_in_all_cases": "glycan lost; control: GlyRα1WT", "key": {"[1]": {"experiment": "whole cell fraction western blot, normalized to pan-cadherin"}, "[2]": {"experiment": "whole-cell patch-clamp, saturating 1 mM glycine"}, "[3]": {"experiment": "whole-cell patch-clamp dose-response, HEK293"}, "[4]": {"experiment": "whole-cell patch-clamp, 100 μM glycine"}}, "data": [{"protein": "B1", "values": [{"measurement": "expression_or_secretion, other: relative expression", "setting": "[1]", "result": "no change, 0.57 ± 0.13 vs 1.0 ± 0.16, GlyRα1WT 1.0 ± 0.16; GlyRα1N38Q 0.57 ± 0.13; p = 0.1118"}, {"measurement": "other: channel current, other: current amplitude", "setting": "[2]", "result": "no change, 5.0 ± 0.8 vs 6.0 ± 0.6"}, {"measurement": "other: glycine potency, EC50", "setting": "[3]", "result": "decreases, 206 vs 85"}, {"measurement": "other: channel current, other: current amplitude", "setting": "[4]", "result": "decreases, 1.0 ± 0.3 vs 3.6 ± 0.5"}]}]}
